From paper PMC5437272, “ISCA1 is essential for mitochondrial Fe4S4 biogenesis in vivo” (Nature Communications, 2017)
“And” between values parts separate entries of the source, which are not always exact repeats. Equal entries are not always repeated.

Biological target: the molecule itself
Test: SEC; analytical Superdex-75, 0.5 ml min^-1, buffer E (100 mM Tris-HCl pH 7.5, 100 mM NaCl, 5 mM DTT), calibrated with molecular weight standards; oligomerization state of the ISCA proteins

B1: His-ISCA2 (mouse recombinant ISCA2, mature form) (natural protein, UniProt Q9DCB8 38-154, looked up)
chain: TTSSIPEAGEGQIRLTDSCVQRLLEITEGSEFLRLQVEGGGCSGFQYKFSLDTVINPDDRVFEQGGARVVVDSDSLAFVKGAQVDFSQELIRSSFQVLNNPQAQQGCSCGSSFSVKV
notes: ISCA2, mouse, mature form cloned into pET-11a; theoretical mass of the His-tagged monomer 13,554 Da; As purified it holds a Fe2S2 cluster; also called Fe2S2-ISCA2; source: E. coli BL21(DE3)/pET-ISCA2, purified under anaerobic condition (Ni-NTA); not shown: His tag, N-terminal, kept
B1 was tested, and the “stoichiometry N” value was 2.

B2: His-ISCA1 (mouse recombinant ISCA1, mature form) (natural protein, UniProt Q9D924 13-129, looked up)
chain: VSKRKLQPTRAALTLTPSAVNKIKQLLKDKPEHVGLKVGVRTRGCNGLSYSLEYTKTKGDSDEEVIQDGVRVFIEKKAQLTLLGTEMDYVEDKLSSEFVFNNPNIKGTCGCGESFHV
notes: ISCA1, mouse, mature form cloned into pET-11a; theoretical mass of the His-tagged monomer 13,898.8 Da; As purified it holds a Fe2S2 cluster; By gel filtration a mixture of dimer (main) and tetramer (minor); also called Fe2S2-ISCA1; source: E. coli BL21(DE3)/pET-ISCA1, purified aerobically (Ni-NTA); not shown: His tag, N-terminal, kept
With B2 the “stoichiometry N” value was 2 and 4.
